Several values for one entry are separate records, joined by “and”; a condition that tells them apart may be missing. Equal entries are not always repeated.
B1: Siglec-9-Fc R120A (protein, UniProt Q9Y336 18-348, looked up, variant R120A)
extracellular domain: QTSKLLTMQSSVTVQEGLCVHVPCSFSYPSHGWIYPGPVVHGYWFREGANTDQDAPVATNNPARAVWEETRDRFHLLGDPHTKNCTLSIRDARRSDAGRYFFAMEKGSIKWNYKHHRLSVNVTALTHRPNILIPGTLESGCPQNLTCSVPWACEQGTPPMISWIGTSVSPLDPSTTRSSVLTLIPQPQDHGTSLTCQVTFPGASVTTNKTVHLNVSYPPQNLTMTVFQGDGTVSTVLGNGSSLSLPEGQSLRLVCAVDAVDSNPPARLSLSWRGLTLCPSQPSNPGVLELPWVHLRDAAEFTCRAQNPLGSQQVYLNVSLQSKATSGVTQG
modifications: extracellular domain fused to human IgG1 Fc
B2: Sig-16 R120A: Siglec-16-Fc essential arginine mutant (protein, UniProt A6NMB1 17-434, looked up, variant R120A)
extracellular domain: NKDPSYSLQVQRQVPVPEGLCVIVSCNLSYPRDGWDESTAAYGYWFKGRTSPKTGAPVATNNQSREVAMSTRDRFQLTGDPGKGSCSLVIRDAQREDEAWYFFAVERGSRVRHSFLSNAFFLKVTALTQKPDVYIPETLEPGQPVTVICVFNWAFKKCPAPSFSWTGAALSPRRTRPSTSHFSVLSFTPSPQDHDTDLTCHVDFSRKGVSAQRTVRLRVASLELQGNVIYLEVQKGQFLRLLCAADSQPPATLSWVLQDRVLSSSHPWGPRTLGLELPGVKAGDSGRYTCRAENRLGSQQRALDLSVQYPPENLRVMVSQANRTVLENLRNGTSLRVLEGQSLRLVCVTHSSPPARLSWTWGEQTVGPSQPSDPGVLQLPRVQMEHEGEFTCHARHPLGSQRVSLSFSVHCKSGPMTG
modifications: extracellular domain fused to human IgG1 Fc
notes: Siglec-16-Fc essential arginine mutant
B3: Sig-3 R119A: CD33-Fc essential arginine mutant (protein, UniProt P20138 18-259, looked up, variant R119A)
extracellular domain: DPNFWLQVQESVTVQEGLCVLVPCTFFHPIPYYDKNSPVHGYWFREGAIISRDSPVATNKLDQEVQEETQGRFRLLGDPSRNNCSLSIVDARRRDNGSYFFAMERGSTKYSYKSPQLSVHVTDLTHRPKILIPGTLEPGHSKNLTCSVSWACEQGTPPIFSWLSAAPTSLGPRTTHSSVLIITPRPQDHGTNLTCQVKFAGAGVTTERTIQLNVTYVPQNPTTGIFPGDGSGKQETRAGVVH
modifications: extracellular domain fused to human IgG1 Fc
notes: CD33-Fc essential arginine mutant

Columns and labels:
[1] = tested on: peripheral blood immune cells; test: Comparison of 2-step and pre-complexed Siglec-Fc binding, flow cytometry (Figure 3e-g); format: cell-based, human; details: Figure 3g
MDA-MB-468 = test: Flow cytometry, pre-complexed Siglec-Fc binding to breast cancer cell line; format: cell-based; details: Strep-Tactin-AF647, replicates
Description: (§1) Strep-Tactin-AF647 (0.55 μg/mL, 0.57 pmol), streptavidin (Biolegend), or anti-human igG1 (Biolegend) was added to Siglec supernatant (50 μL) or purified Siglec and allowed to sit at 4 °C for 15 min. After, the pre-complexed solution was added to cells in a 96-well U-bottom plate for 30 min at 4 °C. After, 200 μL of flow buffer (HBSS, 0.1% BSA, 5 mM EDTA) was added and the plate was spun down at 300 rcf for 5 min. The cells were resuspended in 200 μL of flow buffer and processed through the flow cytometer.
(§2) Flow cytometry was performed on a BD LSRFortessa™ X-20 cell analyzer using BD FACSDiva Software Version 8.0.1 and data was processed using FlowJo LLC. Version 9.9.6 and Graphpad Prism 8. The live, single cell populations were gated out with two gates to obtain the median fluorescence intensity (MFI), which indicates binding of the Siglec-Fc-secondary complex to the cell surface. Control cells that were incubated with Strep-Tactin-AF647 (0.55 μg/mL, 0.57 pmol) was used to determine the baseline fluorescence. Number of cells (# cells) plotted indicates percentage of max (% max).

BT549 = test: as above; format: cell-based; details: Strep-Tactin-AF647, replicates
Description: as §1, §2

MCF7 = test: as above; format: cell-based; details: Strep-Tactin-AF647, replicates
Description: as §1, §2

T47D = test: as above; format: cell-based; details: Strep-Tactin-AF647, replicates
Description: as §1, §2

MDA-MB-231 = test: as above; format: cell-based; details: Strep-Tactin-AF647, replicates
Description: as §1, §2

HS578T = test: as above; format: cell-based; details: Strep-Tactin-AF647, replicates
Description: as §1, §2

ZR-75-1 = test: as above; format: cell-based; details: Strep-Tactin-AF647, replicates
Description: as §1, §2

U937 cells = test: Flow cytometry, Siglec-Fc pre-complexed with Strep-Tactin, streptavidin or anti-human IgG1; format: cell-based; details: U937; Strep-Tactin-AF647; replicates, Fig. 2
Description: as §1, §2

K562 cells = test: Flow cytometry, pre-complexed Siglec-Fc binding; format: cell-based; details: Strep-Tactin-AF647, replicates
Description: as §1, §2

Jurkat cells = test: Flow cytometry, pre-complexed Siglec-Fc binding; format: cell-based; details: Strep-Tactin-AF647, replicates
Description: as §1, §2

HuH7 cells = test: Flow cytometry, pre-complexed Siglec-Fc binding; format: cell-based; details: Strep-Tactin-AF647, replicates
Description: as §1, §2

A549 cells = test: Flow cytometry, pre-complexed Siglec-Fc binding; format: cell-based; details: Strep-Tactin-AF647, replicates
Description: as §1, §2

HEK293T cells = test: Flow cytometry, pre-complexed Siglec-Fc binding; format: cell-based; details: HEK; Strep-Tactin-AF647; replicates
Description: as §1, §2

eosinophils (Siglec-8+) = test: Siglec ligands on peripheral blood immune cells, flow cytometry; format: cell-based, human; parameters: key: median fluorescence intensity (MFI) of Siglec-Fc complex binding; details: replicate values
Description: (§3) Siglec supernatant (50 μL) or purified Siglec was incubated with cells in a 96-well U-bottom plate for 30 min at 4 °C. Following the incubation, 200 μL of flow buffer (HBSS, 0.1% BSA, 5 mM EDTA) was added and the plate was spun down at 300 rcf for 5 min. Strep-Tactin-AF647 (0.55 μg/mL, 50 μL, 0.57 pmol), streptavidin (Biolegend), or anti-human IgG1 (Biolegend) was added to the cells and incubated for 30 min at 4 °C. After, 200 μL of flow buffer (HBSS, 0.1% BSA, 5 mM EDTA) was added and the plate was spun down at 300 rcf for 5 min. The cells were resuspended in 200 μL of flow buffer and processed through the flow cytometer.
as §1
(§4) For human splenocytes, the sample was homogenized in media through a 40 µm filter (Corning) under sterile conditions. Samples were centrifuged at 300 rcf for 5 min. The resulting pellet from the spleen sample and whole human blood were treated with RBC lysis buffer (7 min) and centrifuged at 300 rcf and the RBC lysis was repeated twice more until no RBC remained in the pellet. Samples were treated with human Fc-receptor blocking agent (TruStain FX, Biolegend) in flow buffer (HBSS, 0.1% BSA, 5 mM EDTA). For analysis, the following cocktail was used: hSig8 (PerCP/Cy5.5, clone 7C9, Biolegend cat. no. 347108, 1:200), hCD123 (PE/Cy7, clone 6H6, Biolegend cat. no. 306010, 1:200), hCD19 (PE, clone SJ25C1, Biolegend cat. no. 363004, 1:200), hCD3 (FITC, BD Pharmingen cat. no. 555332, 1:50), hCD14 (BV605, clone M5E2, BD Horizon cat. no. 564056, 1:200), hCD15 (BUV395, clone HI98, BD Horizon cat. no. 563872, 1:200), hCD56 (BV510, clone NCAM16.2, BD Horizon cat. no. 563041, 1:200). For human peripheral blood samples, we additionally used hHLA-DR (APC-Cy7, clone L243, Biolegend cat. no. 307618, 1:200). Pre-complexed Siglec-Fc/Strep-Tactin-AF647 (described above) was added to the antibody cocktail, added to cells, and allowed to stain at 4 °C for 45 min. The cells were then centrifuged at 300 rcf for 5 min and resuspended in flow buffer containing 1 µg/mL propidium iodide prior to analysis by flow cytometry.
as §2

basophils (CCR3+) = test: as above; format: cell-based, human; parameters: key: median fluorescence intensity (MFI) of Siglec-Fc complex binding; details: replicate values
Description: as §3, §1, §4, §2

monocytes (CD14+) = test: as above; format: cell-based, human; parameters: key: median fluorescence intensity (MFI) of Siglec-Fc complex binding; details: replicate values
Description: as §3, §1, §4, §2

[2] = tested on: neutrophils (CD15+), human splenocytes; test: Siglec-Fc (CD22-Fc V1/V2, with or without Fc receptor block) binding to splenocytes, flow cytometry; format: cell-based; details: Suppl Fig 12; three replicate columns
Description: as §4, §2

pDCs (CD123high/HLA-DR+) = test: Siglec ligands on peripheral blood immune cells, flow cytometry; format: cell-based, human; details: pDC; replicate values
Description: as §4, §2

B-cells (CD19+) = test: as above; format: cell-based, human; details: replicate values
Description: as §4, §2

T-cells (CD3+) = test: as above; format: cell-based, human; details: replicate values
Description: as §4, §2

cDCs (CD123dim/HLA-DR+) = test: as above; format: cell-based, human; details: cDC; replicate values
Description: as §4, §2

NK cells (CD56+) = test: as above; format: cell-based, human; details: replicate values
Description: as §4, §2

neutrophils (CD15+) = test: as above; format: cell-based, human; details: replicate values
Description: as §4, §2

[3] = tested on: NK cells (CD56+), human splenocytes; test: Siglec-Fc binding to splenocytes, flow cytometry; format: cell-based; details: Suppl Fig 12; three replicate columns
Description: as §4, §2

[4] = tested on: monocytes (CD14+), human splenocytes; test: Siglec-Fc binding to splenocytes, flow cytometry; format: cell-based; details: Suppl Fig 12; three replicate columns
Description: as §4, §2

[5] = tested on: B-cells (CD19+), human splenocytes; test: Siglec-Fc binding to splenocytes, flow cytometry; format: cell-based; details: Suppl Fig 12; three replicate columns
Description: as §4, §2

[6] = tested on: T-cells (CD3+), human splenocytes; test: Siglec-Fc binding to splenocytes, flow cytometry; format: cell-based; details: Suppl Fig 12; three replicate columns
Description: as §4, §2

Row | Molecule | binding of pre-complexed Siglec-Fc (MFI) (MDA-MB-468) | binding of pre-complexed Siglec-Fc (MFI) (BT549) | binding of pre-complexed Siglec-Fc (MFI) (MCF7) | binding of pre-complexed Siglec-Fc (MFI) (T47D) | binding of pre-complexed Siglec-Fc (MFI) (MDA-MB-231) | binding of pre-complexed Siglec-Fc (MFI) (HS578T) | binding of pre-complexed Siglec-Fc (MFI) (ZR-75-1) | binding of pre-complexed Siglec-Fc (MFI) (U937 cells) | binding of pre-complexed Siglec-Fc (MFI) (K562 cells) | binding of pre-complexed Siglec-Fc (MFI) (Jurkat cells) | binding of pre-complexed Siglec-Fc (MFI) (HuH7 cells) | binding of pre-complexed Siglec-Fc (MFI) (A549 cells) | binding of pre-complexed Siglec-Fc (MFI) (HEK293T cells) | Siglec-Fc binding (Figure 3d) (eosinophils (Siglec-8+)) | Siglec-Fc binding (Figure 3d) (basophils (CCR3+)) | Siglec-Fc binding (Figure 3d) (monocytes (CD14+)) | Binding, Neutrophils [2] | Siglec-Fc binding (Figure 3d) (pDCs (CD123high/HLA-DR+)) | Siglec-Fc binding (Figure 3d) (B-cells (CD19+)) | Siglec-Fc binding (Figure 3d) (T-cells (CD3+)) | other results
1 | B1 |  |  |  |  |  |  |  |  |  |  |  |  |  |  |  |  |  |  |  |  | Siglec-9-Fc Binding ([1]; 2-Step): 43.3 and 45.1 and 40.9; Siglec-9-Fc Binding ([1]; Precomplex): 42 and 53.2 and 47.5
2 | B2 | 81.8 and 84.5 and 83.4 | 124 and 130 and 128 | 102 | 75.5 and 80.8 and 81.8 | 111 and 118 and 117 | 116 and 119 and 110 | 171 and 183 and 144 | 90.2 and 97.8 and 102 | 80.4 and 84.2 and 88.7 | 74.2 and 80.5 and 83 | 131 and 130 and 128 | 103 (2×) and 108 | 70.6 and 77.5 and 78.9 | 41.1 and 56.9 and 14.4 | 82.2 and 51.9 and 97 | 46.2 and 59 and 12.8 | 16.1 and 20.7 and 14.4 | 74.5 and -8.98 and 57.8 | 32.1 and 52.6 and -2.57 | 25.7 and 12.5 and 15.5 | Siglec-Fc binding (Figure 3d) (cDCs (CD123dim/HLA-DR+)): 66.8 and -25.7 and 30.8; Siglec-Fc binding (Figure 3d) (NK cells (CD56+)): 38.5 and 45.7 and 13.8; Siglec-Fc binding (Figure 3d) (neutrophils (CD15+)): 44.9 and 39.4 and 8.1; Binding, NK [3]: -1.72 and -0.57 and 2.3; Binding, Monocytes [4]: 17.2 and 15.5 and 13.2; Binding, B-cells [5]: 9.76 and 13.2 and 11.5; Binding, T-cells [6]: -5.17 and -4.02 and -2.3
3 | B3 | 85.3 and 88 and 88.8 | 140 and 148 and 151 | 107 and 105 and 113 | 88.8 and 95.2 (2×) | 133 (2×) and 138 | 127 (2×) and 130 | 212 and 223 and 240 | 103 and 139 and 125 | 73.5 and 79.6 and 81.1 | 101 and 105 and 109 | 85.3 and 88.8 and 87.9 | 196 and 195 and 188 | 86.5 and 94.1 and 92.2 | 15.4 and -50.1 and 11.6 | 73.2 and 10.3 and 39.8 | 74.5 and -10.3 and 64.2 | 20.7 and 30.4 and 24.9 | 43.6 and 23.1 and 53.9 | 147 and 5.13 and 27 | 11.6 and -14.1 and 8.98 | Siglec-Fc binding (Figure 3d) (cDCs (CD123dim/HLA-DR+)): 28.2 and -2.85 and 34.7; Siglec-Fc binding (Figure 3d) (NK cells (CD56+)): 3.81 and -14.1 and 12.8; Siglec-Fc binding (Figure 3d) (neutrophils (CD15+)): 27 and -33.4 and 14.1; Binding, NK [3]: 16.9 and 14.2 and 13.6; Binding, Monocytes [4]: 22.5 and 51.6 and 43.8; Binding, B-cells [5]: 24.9 and 27 and 31.3; Binding, T-cells [6]: 9.87 and 7.5 and 8.87
